Data reported in patent publication US20200247855A1, “THERAPY AND DIAGNOSTICS” (OXFORD UNIVERSITY INNOVATION LIMITED, priority 2017, published 2020).
Changes are numbered by the printed parent chain. Entries after “also recorded” stand apart in the source; their conditions may differ.

Assays:
CCL7_HUMAN = CCL7_HUMAN (Homo sapiens, UniProt P80098); experiment: Biolayer interferometry (BLI) binding
Method in brief: (§1)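 Kd (M) came from curve fits to association, equilibrium and dissociation phases. Purified His-tagged tick evasin was immobilised on Ni-NTA biosensors; chemokines binding in a 300 nM cross-screen were then tested at a range of concentrations.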

CCL3L1_HUMAN = CCL3L1_HUMAN (Homo sapiens, UniProt P16619); experiment: Biolayer interferometry (BLI) binding
Method in brief: as §1

CCL18_HUMAN = target: T1, CCL18_HUMAN (Homo sapiens, UniProt P55774); experiment: Biolayer interferometry (BLI) binding
T1 sequence (P55774 21-89): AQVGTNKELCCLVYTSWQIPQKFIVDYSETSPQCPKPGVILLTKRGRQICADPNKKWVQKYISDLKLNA
Method in brief: as §1

CCL11_HUMAN = CCL11_HUMAN (Homo sapiens, UniProt P51671); experiment: Biolayer interferometry (BLI) binding
Method in brief: as §1

CCL5_HUMAN = target: T2, CCL5_HUMAN (Homo sapiens, UniProt P13501); experiment: Biolayer interferometry (BLI) binding
T2 sequence (P13501 24-91): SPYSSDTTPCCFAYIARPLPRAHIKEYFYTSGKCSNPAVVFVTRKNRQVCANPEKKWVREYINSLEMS
Method in brief: as §1

CCL13_HUMAN = CCL13_HUMAN (Homo sapiens, UniProt Q99616); experiment: Biolayer interferometry (BLI) binding
Method in brief: as §1

CCL22_HUMAN = target: T3, CCL22_HUMAN (Homo sapiens, UniProt O00626); experiment: Biolayer interferometry (BLI) binding
T3 sequence (O00626 25-93): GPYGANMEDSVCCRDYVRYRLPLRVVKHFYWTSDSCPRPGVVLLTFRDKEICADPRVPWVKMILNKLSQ
Method in brief: as §1

CCL17_HUMAN = target: T4, CCL17_HUMAN (Homo sapiens, UniProt Q92583); experiment: Biolayer interferometry (BLI) binding
T4 sequence (Q92583 24-94): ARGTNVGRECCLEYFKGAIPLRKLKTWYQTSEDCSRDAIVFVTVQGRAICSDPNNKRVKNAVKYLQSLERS
Method in brief: as §1

CCL4L1_HUMAN = target: T5, CCL4L1_HUMAN (Homo sapiens, UniProt Q8NHW4); experiment: Biolayer interferometry (BLI) binding
T5 sequence (Q8NHW4 24-92): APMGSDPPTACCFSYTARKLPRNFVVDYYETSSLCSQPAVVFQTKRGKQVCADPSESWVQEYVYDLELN
Method in brief: as §1

CCL8_HUMAN = target: T6, CCL8_HUMAN (Homo sapiens, UniProt P80075); experiment: Biolayer interferometry (BLI) binding; settings: read-out: Kd, CCL8_HUMAN
T6 sequence (P80075 24-99): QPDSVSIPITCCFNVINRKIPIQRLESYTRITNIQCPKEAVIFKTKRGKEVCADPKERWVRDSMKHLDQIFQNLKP
Method in brief: as §1

CCL14_HUMAN = target: T7, CCL14_HUMAN (Homo sapiens, UniProt Q16627); experiment: Biolayer interferometry (BLI) binding
T7 sequence (Q16627 20-93): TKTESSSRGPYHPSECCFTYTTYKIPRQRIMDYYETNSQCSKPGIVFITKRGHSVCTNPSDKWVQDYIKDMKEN
Method in brief: as §1

CCL3_HUMAN = target: T8, CCL3_HUMAN (Homo sapiens, UniProt P10147); experiment: Biolayer interferometry (BLI) binding
T8 sequence (P10147 24-92): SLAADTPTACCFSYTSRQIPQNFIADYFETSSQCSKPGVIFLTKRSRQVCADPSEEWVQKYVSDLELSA
Method in brief: as §1

CCL1_HUMAN = target: T9, CCL1_HUMAN (Homo sapiens, UniProt P22362); experiment: Biolayer interferometry (BLI) binding
T9 sequence (P22362 24-96): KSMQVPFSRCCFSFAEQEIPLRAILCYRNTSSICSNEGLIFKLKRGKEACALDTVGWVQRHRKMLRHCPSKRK
Method in brief: as §1

CCL4_HUMAN = target: T10, CCL4_HUMAN (Homo sapiens, UniProt P13236); experiment: Biolayer interferometry (BLI) binding
T10 sequence (P13236 24-92): T5 sequence (Q8NHW4 24-92) with G47S
Method in brief: as §1

CCL2_HUMAN = CCL2_HUMAN (Homo sapiens, UniProt P13500); experiment: Biolayer interferometry (BLI) binding
Method in brief: as §1

chemokines = settings: list of chemokines bound, from the literature [18,20-22]; cited from earlier work
CXCL11_HUMAN = target: T11, CXCL11_HUMAN (Homo sapiens, UniProt O14625); experiment: Yeast surface display (YSD) FACS binding; settings: FACS re-test; mean percent shift where several clones
T11 sequence (O14625 22-94): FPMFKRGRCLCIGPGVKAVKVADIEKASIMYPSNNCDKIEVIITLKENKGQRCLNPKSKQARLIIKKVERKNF
Method in brief: (§2)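 Yeast clones displaying tick peptides were re-tested by FACS with labelled chemokine detected by streptavidin-Alexa conjugate. Binding was scored as % of peptide-expressing cells above a background set with streptavidin-Alexa alone, averaged over independent clones. In the screen tables, >3-fold over background mean fluorescence intensity was scored as binding.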

[1] = system: human CCL5 together with CXCL8, CXCL1, CCL3 or CCL2; experiment: Biolayer interferometry polyvalent binding (association with CCL5, then CCL5 plus second chemokine); settings: BLI, wavelength shift in association 2
Description: FIG. 10. Polyvalent binding of CC and CXC chemokines to two-warhead evasins. […] This was followed by association with CCL5+CXCL8 (light grey trace), or with CCL5+CXCL1 (dark grey trace) or CCL5+CCL3 (black trace) (association 2), and then dissociated in buffer (dissociation).
FIG. 11. Polyvalent binding of CC and CXC chemokines to two-warhead evasins. […] This was followed by association with CCL5+CXCL8 (light grey trace), or with CCL5+CXCL1 (dark grey trace) or CCL5+CCL2 (black trace) (association 2), and then dissociated in buffer (dissociation).
The ability of 2-warhead evasins to engage in polyvalent binding of CC and CXC chemokines was further determined.

CCL20_HUMAN = CCL20_HUMAN (Homo sapiens, UniProt P78556); experiment: Yeast surface display (YSD) FACS binding
Method in brief: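 Yeast clones displaying tick peptides were re-tested by FACS with labelled chemokine. Binding = % of peptide-expressing yeast above a background threshold set with streptavidin-Alexa647 alone; the mean percent shift was used where several clones were isolated. Confirmed binding ("YES") required >3-fold over background mean fluorescence intensity.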

CXCL12_HUMAN = CXCL12_HUMAN (Homo sapiens, UniProt P48061); experiment: Yeast surface display (YSD) FACS binding; settings: yeast surface display
Method in brief: as §2

CCL2_HUMAN, sequence (P13500 24-99): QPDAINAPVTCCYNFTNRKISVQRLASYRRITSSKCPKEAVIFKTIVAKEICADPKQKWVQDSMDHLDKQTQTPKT
CCL11_HUMAN, sequence (P51671 24-97): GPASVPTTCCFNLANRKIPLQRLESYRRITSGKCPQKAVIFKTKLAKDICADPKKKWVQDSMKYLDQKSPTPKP
CCL13_HUMAN, sequence (Q99616 17-98): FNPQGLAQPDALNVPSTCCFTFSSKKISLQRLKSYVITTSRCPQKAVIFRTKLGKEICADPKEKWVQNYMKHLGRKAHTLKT
CCL7_HUMAN, sequence (P80098 24-99): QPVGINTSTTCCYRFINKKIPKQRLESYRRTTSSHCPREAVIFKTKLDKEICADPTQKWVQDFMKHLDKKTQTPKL
CCL3L1_HUMAN, sequence (P16619 24-93): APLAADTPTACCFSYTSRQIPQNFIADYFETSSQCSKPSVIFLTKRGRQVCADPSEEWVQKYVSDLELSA
CCL20_HUMAN, sequence (P78556 27-96): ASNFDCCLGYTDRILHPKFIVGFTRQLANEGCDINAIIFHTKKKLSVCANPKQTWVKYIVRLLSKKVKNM
CXCL12_HUMAN, sequence (P48061 22-93): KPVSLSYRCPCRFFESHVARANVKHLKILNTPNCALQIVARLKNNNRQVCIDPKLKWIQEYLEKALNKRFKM

B1: P974_AMBCA: tick CKBP, Amblyomma cajennense; ACA-01 stated identical (protein)
chain: ENTQQEEQDYDYGTDTCPFPVLANKTNKAKFVGCHQKCNGGDQKLTDGTACYVVERKVWDRMTPMLWYECPLGECKNGVCEDLRKKEDCRKGNGEEK
modifications: Amblyomma cajennense
notes: tick CKBP, Amblyomma cajennense; ACA-01 stated identical
CCL7_HUMAN
  Kd: 41.2 nM
CCL3L1_HUMAN
  Kd: 13.1 nM
CCL18_HUMAN
  Kd: 17 nM
CCL11_HUMAN
  Kd: 17 nM
CCL5_HUMAN
  Kd: 160 nM
CCL13_HUMAN
  Kd: 22.9 nM
CCL22_HUMAN
  Kd: 16.5 nM
CCL17_HUMAN
  Kd: 70.6 nM
CCL4L1_HUMAN
  Kd: 23.2 nM
CCL8_HUMAN
  Kd: 2.58 nM
CCL14_HUMAN
  Kd: 49.1 nM
CCL3_HUMAN
  Kd: 7.97 nM
CCL1_HUMAN
  Kd: 70.5 nM
CCL4_HUMAN
  Kd: 30.2 nM
CCL2_HUMAN
  Kd: 93 nM
chemokines
  Previously described chemokine binding: CCL11, CCL24,; also recorded: CCL26, CCL2,; also recorded: CCL8, CCL7

B2: P546_AMBCA: tick CKBP, Amblyomma cajennense (protein)
chain: B1 chain with Q8E, E69S, D88E
modifications: Amblyomma cajennense
CCL7_HUMAN
  Kd: 90 nM
CCL3L1_HUMAN
  Kd: 15 nM
CCL18_HUMAN
  Kd: 16 nM
CCL11_HUMAN
  Kd: 8.7 nM
CCL13_HUMAN
  Kd: 13 nM
CCL22_HUMAN
  Kd: 27 nM
CCL17_HUMAN
  Kd: 70 nM
CCL4L1_HUMAN
  Kd: 8.9 nM
CCL8_HUMAN
  Kd: 1.3 nM
CCL14_HUMAN
  Kd: 28 nM
CCL3_HUMAN
  Kd: 15 nM
CCL1_HUMAN
  Kd: 160 nM
CCL4_HUMAN
  Kd: 27 nM
CCL2_HUMAN
  Kd: 83 nM

B3: P675_IXORI: novel CXC-binding tick CKBP, Ixodes ricinus (protein, listed as Ixodes ricinus)
chain: GSNQLSGPQSSANSNDAVFCDTNCTQGTDGAWSGCRGDCFCVHVGNSTEGRCIELIGDFDYSTPGAED
CXCL11_HUMAN
  Chemokines bound in yeast surface display and % cells over threshold fluorescence: CXCL11_HUMAN: CXCL11_HUMAN 55%

B4: P942_IXORI: novel CXC-binding tick CKBP, Ixodes ricinus (protein, listed as Ixodes ricinus)
chain: NQLSGPQSSANSNEAVFCDTNCTQGTDEAWSGCRGDCFCVYVGNSTEGRCMMLSGDFDYSTPGAED
CXCL11_HUMAN
  Chemokines bound in yeast surface display and % cells over threshold fluorescence: CXCL11_HUMAN: CXCL11_HUMAN 37%

B5: SEQ ID NO: 81: two-warhead evasin: P1156_IXORI linked via GGGGS linker to P1243_AMBAM (protein)
chain: ADDDNELFTVQYCGMNCTKDEGGTWTGCTGKKEGCKCYHESGKNYGLCLSTEYTDFSQYGNPSDSEIEAAKPKRSDTLSHGGGGSRNHTEDNSTEYYDYEEARCACPARHLNNTNGTVLKLLGCHYFCNGTLCTAPDGYPCYNLTAQQVRTLTTYPNTSCAVGVCMKGTCVKNGTMEQCFKTP
modifications: hybrid polypeptide
notes: two-warhead evasin: P1156_IXORI linked via GGGGS linker to P1243_AMBAM
[1]
  Polyvalent (simultaneous) binding of CC and CXC chemokines: can associate simultaneously with CCL5 and either CXCL8 or CXCL1

B6: P1090_IXORI: novel CXC-binding tick CKBP, Ixodes ricinus (protein, listed as Ixodes ricinus)
chain: GSKELSGPESSENSIEAAFCDTNCTEGTDGVWSGCSAGCFCVHVGNSTVGRCMTFNGVDGG
CXCL11_HUMAN
  Chemokines bound in yeast surface display and % cells over threshold fluorescence: CXCL11_HUMAN: CXCL11_HUMAN 32%

B7: SEQ ID NO: 80: two-warhead evasin: P1156_IXORI linked via GGGGS linker to P991_AMBCA (protein)
chain: ADDDNELFTVQYCGMNCTKDEGGTWTGCTGKKEGCKCYHESGKNYGLCLSTEYTDFSQYGNPSDSEIEAAKPKRSDTLSHGGGGSENGEGTTQPDYDNSTDYYNYEDFKCTCPAPHLNNTNGTVMKPIGCYYTCNVTRCTAPDTYPCYNLTEHQAKNLTTSPTTLCAVGNCDHGICVPNGTKELCFKAPNLEE
modifications: hybrid polypeptide
notes: two-warhead evasin: P1156_IXORI linked via GGGGS linker to P991_AMBCA
[1]
  Polyvalent (simultaneous) binding of CC and CXC chemokines: can associate simultaneously with CCL5 and either CXCL8 or CXCL1

B8: P1015_AMBCA: tick CKBP, Amblyomma cajennense (protein)
chain: EEAPGPAPGCGEPEPTPPKPRRHGIVTNVNSCNSTILVWNGKEFPALCKVRCPHKSYRVSDFEPCLKFTNRRFLQERKDETPYKCKLGFCRHGTCITSEHSRKVPCKVPADRLDPSE
modifications: Amblyomma cajennense
CCL20_HUMAN
  Binding to CCL20_HUMAN, YSD: YES (An arbitrary threshold of >3 fold over background mean fluorescence intensity was chosen to describe confirmed re-tests. Where binding was detected data are indicated as “YES”)
CXCL12_HUMAN
  Binding to CXCL12_HUMAN, YSD: YES (An arbitrary threshold of >3 fold over background mean fluorescence intensity was chosen to describe confirmed re-tests. Where binding was detected data are indicated as “YES”)

B9: SEQ ID NO: 73: two-warhead evasin: P991_AMBCA linked via GGGGS linker to P1156_IXORI (protein)
chain: ENGEGTTQPDYDNSTDYYNYEDFKCTCPAPHLNNTNGTVMKPIGCYYTCNVTRCTAPDTYPCYNLTEHQAKNLTTSPTTLCAVGNCDHGICVPNGTKELCFKAPNLEEGGGGSADDDNELFTVQYCGMNCTKDEGGTWTGCTGKKEGCKCYHESGKNYGLCLSTEYTDFSQYGNPSDSEIEAAKPKRSDTLSH
modifications: hybrid polypeptide
notes: two-warhead evasin: P991_AMBCA linked via GGGGS linker to P1156_IXORI
[1]
  Polyvalent (simultaneous) binding of CC and CXC chemokines: can associate simultaneously with CCL5 and either CXCL8 or CXCL1

B10: P1078_IXORI: novel CXC-binding tick CKBP, Ixodes ricinus (protein, listed as Ixodes ricinus)
chain: GSKGSSAQQSSHDSIKAEFCETNCTMKTGGKWTQCHGGCFCVHVGNETVGRCIKLDGDYDYPSSKHEE
CXCL11_HUMAN
  Chemokines bound in yeast surface display and % cells over threshold fluorescence: CXCL11_HUMAN: CXCL11_HUMAN 38%
